Experimental data taken from US20070259809A1.

Biological target: human thrombin (human) (UniProt P00734)
Assay: cell-based or functional assay

**Q.** Which thrombin inhibition (residual thrombin activity by chromogenic assay); 1 µM dose, wall shear rate 2,000 sec^-1 does the source give for “recombinant DES.N135A ATIII (from UniProt P01008 33-464)” here?
**A.** Its thrombin inhibition (residual thrombin activity by chromogenic assay); 1 µM dose, wall shear rate 2,000 sec^-1 is over 85%.
